Measured values from US20240132619A1.

Tests used:
[1] = target: human serum albumin (HSA) (human) (UniProt P02768); assay: ELISA, HSA coated on plate, n = 3
[2] = target: mouse serum albumin (MSA) (mouse) (UniProt P07724); assay: ELISA, MSA coated on plate, n = 3
Sequence of UniProt P07724 (P07724 25-608 limits assumed): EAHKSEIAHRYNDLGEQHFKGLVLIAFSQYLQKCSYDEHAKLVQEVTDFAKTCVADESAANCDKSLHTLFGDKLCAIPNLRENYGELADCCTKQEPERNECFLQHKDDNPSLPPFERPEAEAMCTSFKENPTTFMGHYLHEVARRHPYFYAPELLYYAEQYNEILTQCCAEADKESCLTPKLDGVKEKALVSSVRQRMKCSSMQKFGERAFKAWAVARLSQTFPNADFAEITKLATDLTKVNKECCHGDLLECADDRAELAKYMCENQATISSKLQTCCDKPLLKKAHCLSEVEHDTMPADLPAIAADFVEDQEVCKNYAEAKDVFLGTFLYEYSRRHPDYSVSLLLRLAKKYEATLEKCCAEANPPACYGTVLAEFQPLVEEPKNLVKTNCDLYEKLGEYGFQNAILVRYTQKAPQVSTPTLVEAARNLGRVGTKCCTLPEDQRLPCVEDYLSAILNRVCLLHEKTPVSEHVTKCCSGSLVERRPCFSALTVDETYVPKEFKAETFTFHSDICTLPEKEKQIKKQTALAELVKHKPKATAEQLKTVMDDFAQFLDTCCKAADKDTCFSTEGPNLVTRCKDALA

Sequence of UniProt P02768 (P02768 25-609 limits assumed): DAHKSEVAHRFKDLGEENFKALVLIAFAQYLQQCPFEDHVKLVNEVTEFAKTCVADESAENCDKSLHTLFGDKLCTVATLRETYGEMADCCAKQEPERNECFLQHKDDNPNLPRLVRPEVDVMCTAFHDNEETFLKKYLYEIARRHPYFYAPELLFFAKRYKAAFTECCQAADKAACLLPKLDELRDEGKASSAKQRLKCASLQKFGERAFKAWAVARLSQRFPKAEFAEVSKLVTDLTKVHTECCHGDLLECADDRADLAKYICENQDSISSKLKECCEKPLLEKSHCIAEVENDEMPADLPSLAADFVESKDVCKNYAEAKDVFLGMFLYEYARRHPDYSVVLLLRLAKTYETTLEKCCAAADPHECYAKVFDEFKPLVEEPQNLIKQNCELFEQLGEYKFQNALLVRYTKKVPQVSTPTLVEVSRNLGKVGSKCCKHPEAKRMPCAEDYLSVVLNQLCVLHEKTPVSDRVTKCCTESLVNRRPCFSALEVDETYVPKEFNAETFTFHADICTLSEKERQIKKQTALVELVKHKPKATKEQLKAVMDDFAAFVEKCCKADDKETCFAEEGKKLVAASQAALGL

Substance: SS1-ABD-dsFv-PE38 (LMB-209)
- Affinity [1]: 0.11 nM
- Affinity [2]: 0.16 nM
